# Data: patent US10632208B2, “Peptide-mediated drug delivery across epithelial barrier” (Purdue Research Foundation, priority 2017, dated 2020)
# What was measured:
# L. monocytogenes = test: Translocation of L. monocytogenes through polarized Caco-2 monolayers on Transwell filter-inserts; assay type: cell-based, Listeria monocytogenes; conditions: LAP 1 or 2 μg/mL, MOI 50
# Procedure: Caco-2 cells were grown as monolayers on Transwell inserts with 3.0 μm pores (Corning-Costar) for up to 14-21 days. TEER was measured to monitor the monolayer integrity (Millicells Voltmeter, Millipore). A TEER value of at least 200 Ω/cm^2 (±10) was used as the basal value to monitor the monolayer integrity. Bacterial cells were washed three times in PBS and resuspended in DMEM-FBS (10%) at a MOI of ˜50 and were added to the apical side of the Transwell system, and after 2 h incubation period at 37° C. in 5% CO2, the liquid was collected from the basal well, and then translocated bacteria were enumerated by plating (Burkholder and Bhunia, 2010). For analysis of FD4 flux, non-metabolizable 4 kDa FITC-labeled dextran (FD4; 5 mg/ml, Sigma-Aldrich) was added with bacteria (MOI, ˜50) resuspended in DMEM-FBS (10%) and added to the apical side. After 2 h incubation at 37° C. in 5% CO2, the liquid was collected from the basal well and fluorescence was measured (Em: 485 nm; Ex: 520 nm; Spectramax, Molecular Devices). For pharmacological inhibition treatments, PDTC (100 μM for 30 min pre-treatment; R&D Systems), Bay-11-7085 (10 μM for 30 min pre-treatment; Sigma-Aldrich), ML-9 (20 μM for 30 min pre-treatment; Sigma-Aldrich), PIK (150 μM, 30 min-pre-treatment and kept during 2-h infection) (Zolotarevsky et al., 2002), and Cytochalasin D (1 μg/mL for 1 h; Sigma-Aldrich) were used separately.
# For re-association of externally added LAP to the lap^− mutant, bacteria were harvested from 1 ml of overnight grown culture, and the pellet was washed three times in PBS before the addition of 1 or 2 μg/mL of purified LAP. The mixture was incubated for 30 min at 30° C. with continuous shaking and then pelleted, washed five times in the PBS, resuspended in DMEM, and used in the aforementioned translocation assay.
# IL-6 = test: ELISA of IL-6 in Caco-2 cell supernatants; assay type: cell-based, human; conditions: recombinant LAP 1 μg/mL, 8 h
# Procedure: A semi-quantitative membrane-based RayBio Human Inflammation Antibody Array kit (Ray Biotech) was used to analyze a panel of 40 inflammatory mediators in Caco-2 cell supernatant infected either with the WT or lap^− strain (MOI, ˜50) at 37° C. for 1 h. After killing the extracellular bacteria by gentamicin (50 μg/mL), the Caco-2 cells were incubated for an additional 7 h at 37° C. Recombinant LAP (1 μg/mL) from ClearColi was incubated for 8 h with Caco-2 cells. After immunoblotting, the reaction intensity was quantified using NIH ImageJ software. The data were normalized and expressed as the mean fold changes as a ratio of lap^−/WT±SEM. For the ELISA, Caco-2 cell supernatants were centrifuged (2,000 rpm at 4° C. for 10 min) following treatment as above, and the quantification of TNF-α and IL-6 in was performed using human TNF-α and IL-6 ELISA kits (Ray Biotech) as per manufacturer's instruction. The quantification of TNF-α and IL-6 protein levels was performed in the ileal tissue lysates from mice using mouse TNF-α and IL-6 ELISA kits (Ray Biotech) as per manufacturer's instruction.
# NF-κB = NF-κB luciferase reporter assay in RAW 264.7 cells; assay type: cell-based, murine
# Procedure: The NF-κB Luciferase reporter RAW 264.7 cell line (Novus Biologicals), which expresses an optimized Renilla luciferase reporter gene (RenSP) under the transcriptional control of an NF-κB response element, was used. The cells were seeded (1×10^5 cells/well) into 96-well luminometer-compatible plates for 16 h and then treated with analytes for 6 h. Media from each well were aspirated, and then 100 μL of ice-cold PBS was added to each well. The plates were then frozen solid at −80° C. overnight to completely lyse the cells, thawed back to room temperature, and luciferase assays were performed using the LightSwitch Luciferase assay kit (Novus Biologicals). Luminescence was measured as the relative luminescence units (RLU) using Spectramax (Spectramax, Molecular Devices) and reported as the relative fold change compared with that of the control cells that were treated with media alone. Recombinant human or mouse TNF-α (R&D Systems) and polymyxin B, LPS (E. coli Serotype R515, Re, TLR grade), and proteinase K (each from Sigma-Aldrich) were used.
# MLCK = test: Immunoblot of MLCK and P-MLC in whole-cell Caco-2 lysates; assay type: cell-based, human; conditions: purified LAP 1 μg/mL, 60 min pi
# Procedure: To extract the proteins from Caco-2 cells, cells were seeded in 6-well plates for 14-21 days. Following treatment, the cells were washed, scraped from the bottom of 6-well plates, suspended in PBS, and pelleted by centrifugation. Total protein from Caco-2 cells was extracted using the M-PER Extraction Kit (Thermo Fisher Scientific). Detergent-insoluble (membrane) and detergent-soluble (cytosolic) proteins were isolated using a Mem-Per Eukaryotic Protein Extraction Kit (Thermo Fisher Scientific) while the cytosolic and nuclear proteins were extracted using NE-PER Extraction Reagent (Thermo Fisher Scientific). To extract proteins from ileal epithelial cells, the epithelial cell fraction from ileal tissues were isolated as described above and the detergent-insoluble and the detergent-soluble proteins were isolated using a Mem-Per Eukaryotic Protein Extraction Kit.
# To extract total protein from intact bacterial cells, sample solvent buffer and sonication (3 cycles of 20 min each) were used. […] The protein concentrations were determined by BCA assay (Thermo Fisher Scientific), and separated on SDS-PAGE gels (10-12.5% polyacrylamide) and electro-transferred to polyvinylidene difluoride (PVDF) membrane (Millipore). […] To compare the reaction intensities, the average band densities were determined using Quantity One software (Bio-Rad). […]
molecule,measurement,setting,value
"LAP: Listeria adhesion protein, alcohol acetaldehyde dehydrogenase of Listeria monocytogenes, 866 aa, 94 kDa; recombinant, histidine-tagged form SEQ ID NO: 10 (protein, Listeria monocytogenes) MAIKENAAQEVLEVQKVIDRLADNGQKALKAFESYNQEQVDNIVHAMALAGLDQHMPLAKLAVEETGRGLYEDKCIKNIFATEYIWNNIKNNKTVGVINEDVQTGVIEIAEPVGVVAGVTPVTNPTSTTLFKAIIAIKTRNPIIFAFHPSAQRCSSAAAKVVYDAAIAAGAPEHCIQWVEKPSLEATKQLMNHDKVALVLATGGAGMVKSAYSTGKPALGVGPGNVPAYIDKTAKIKRSVNDIILSKSFDQGMICASEQAVIVDKEVAKEVKAEMEANKCYFVKGAEFKKLESYVINPEKGTLNPDVVGKSPAWIANQAGFKVPEDTKILVAEIKGVGDKYPLSHEKLSPVLAFIEAANQAEAFDRCEEMLVYGGLGHSAVIHSTDKEVQKAFGIRMKACRIIVNAPSAQGGIGDIYNGFIPSLTLGCGSYGKNSVSQNVSATNLLNVKRIADRRNNMQWFKLPPKIFFEKYSTQYLQKMEGVERVFIVTDPGMGSFKYVDVVIEHLKKRGNDVAYQVFADVEPDPSDVTVYKGAELMKDFKPDTIIALGGGSAMDAAKGMWLFYEHPEASFFGLKQKFLDIRKRTFKYPKLGGKAKFVAIPTTSGTGSEVTPFAVITDKENNIKYPLADYELTPDVAIVDAQYVTTVPAHITADTGMDVLTHAIESYVSVMASDYTRGLSIRAIELVFENLRESVLTGDPDAREKMHNASALAGMAFANAFLGINHSLAHKIGPEFHIPHGRANAILMPHVIRYNALKPKKHALFPRYESFRADEDYARISRIIGFPAATTEEGVKSLVDEIIKLGKDVGIDMSLKGQNVAKKDLDAVVDTLADRAFMDQCTTANPKQPLVSELKEIYLEAYKGV",translocation of the lap- strain after pre-incubation with exogenous purified LAP,L. monocytogenes,rescued the translocation defect
same,IL-6 production,IL-6,significantly higher levels
same,NF-κB activation ability after polymyxin-B treatment,NF-κB,retained the NF-κB activation ability
same,NF-κB activation after proteinase-K treatment,NF-κB,abolished
same,NF-κB activation ability after heat treatment,"NF-κB; 100° C., 10 min",abolished the NF-κB activation ability
same,NF-κB activation,"NF-κB; purified proteins, LPS positive control",NF-κB activation in a concentration-dependent manner
same,increase of MLCK protein expression levels,MLCK,249±9%
